The experiment concerns the target SARS-CoV-2 RBD (reagent of the GenScript sVNT kit L00847) (SARS-CoV-2), P0DTC2. The note with it: remark: other sources report otherwise.

B1: Nb21 (VHH)
chain: QVQLVESGGGLVQAGGSLRLSCAVSGLGAHRVGWFRRAPGKEREFVAAIGANGGNTNYLDSVKGRFTISRDNAKNTIYLQMNSLKPQDTAVYYCAARDIETAEYTYWGQGTQVTVSS
Turning to B1, the Inhibition Rate (%) was 14%.

The values above are taken from patent US20240132577A1.
